Patent US9598677B2, “Use of human biliverdin reductase and fragments thereof for the treatment of protein kinase C-delta and ERK related conditions” (University of Rochester, priority 2009, dated 2017)
Ends that are not written are not given here. * marks the point of attachment. Myristoyl = CCCCCCCCCCCCCC(=O)*

Assays:
[1] = target: T1, PKC-βII (Homo sapiens, UniProt P05771); test: PKC-βII kinase assay in vitro; type: biochemical; conditions: MBP substrate, concentrations that markedly inhibited PKC-δ, FIG. 5D
T1 construct: purchased Calbiochem
T1 sequence (P05771 1-673 isoform P05771-2): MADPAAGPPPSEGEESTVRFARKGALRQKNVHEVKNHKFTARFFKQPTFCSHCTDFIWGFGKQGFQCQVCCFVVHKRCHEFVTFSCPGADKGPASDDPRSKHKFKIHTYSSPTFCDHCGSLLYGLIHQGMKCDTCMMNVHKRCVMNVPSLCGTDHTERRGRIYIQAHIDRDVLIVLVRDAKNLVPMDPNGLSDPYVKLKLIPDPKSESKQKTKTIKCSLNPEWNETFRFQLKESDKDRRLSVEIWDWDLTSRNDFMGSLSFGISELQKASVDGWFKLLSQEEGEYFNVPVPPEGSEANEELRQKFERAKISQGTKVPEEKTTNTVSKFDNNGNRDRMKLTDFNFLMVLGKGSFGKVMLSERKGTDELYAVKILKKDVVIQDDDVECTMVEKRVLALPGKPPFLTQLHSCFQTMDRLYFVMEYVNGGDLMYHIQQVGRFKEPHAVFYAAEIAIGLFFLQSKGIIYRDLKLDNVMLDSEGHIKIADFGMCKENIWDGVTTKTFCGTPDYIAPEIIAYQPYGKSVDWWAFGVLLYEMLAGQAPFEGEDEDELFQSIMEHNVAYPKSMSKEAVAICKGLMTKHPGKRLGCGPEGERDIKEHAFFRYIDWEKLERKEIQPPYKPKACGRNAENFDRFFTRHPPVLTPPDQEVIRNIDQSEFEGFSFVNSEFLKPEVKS
Protocol: Measurement of PKC-β and PKC-ζ activities. Recombinant PKC-βII (Calbiochem) was assayed in vitro in 20 mM HEPES pH 7.2, 15 mM MgCl2, 0.2 mM CaCl2, 1 mM DTT, 25 mM β-glycerophosphate, 50 μg/ml phosphatidylserine and 5 μg/ml diacylglycerol, using 12.5 μM MBP as substrate, using 5 ng of enzyme per 50 μl reaction. 100 μM ATP (containing [γ^32P]-ATP (as above) was used to start the reaction, and incorporation was determined using p81 filter binding (Maines et al., “Human Biliverdin Reductase: A Previously Unknown Activator of Protein Kinase C-βII,” J. Biol. Chem. 282:8110-8122 (2007), which is hereby incorporated by reference in its entirety). Similarly, recombinant PKC-ζ(Millipore) was assayed in 20 mM MOPS pH 7.2, 15 mM MgCl2, 0.2 mM EDTA, with 12.5 μM MBP as substrate, again using 5 ng of enzyme per 50 μl reaction (Lerner-Marmarosh et al., “Regulation of TNF-alpha-Activated PKC-zeta Signaling By the Human Biliverdin Reductase: Identification of Activating and Inhibitory Domains of the Reductase,” FASEB J. 21:3949-3962 (2007), which is hereby incorporated by reference in its entirety). Otherwise, reaction conditions were as for PKC-βII.

[2] = target: T2, PKC-δ (Homo sapiens, UniProt Q05655, DEL151-160); test: PKC-δ activity assay in situ in 293A cells; type: cell-based; conditions: myristoylated peptide, FIG. 5C
T2 construct: The human PKC-δ open reading frame was also cloned in the same vectors; expressed in transfected cells; host or cells: HEK 293A
T2 sequence (Q05655 with tags, fused parts or gaps DEL151-160): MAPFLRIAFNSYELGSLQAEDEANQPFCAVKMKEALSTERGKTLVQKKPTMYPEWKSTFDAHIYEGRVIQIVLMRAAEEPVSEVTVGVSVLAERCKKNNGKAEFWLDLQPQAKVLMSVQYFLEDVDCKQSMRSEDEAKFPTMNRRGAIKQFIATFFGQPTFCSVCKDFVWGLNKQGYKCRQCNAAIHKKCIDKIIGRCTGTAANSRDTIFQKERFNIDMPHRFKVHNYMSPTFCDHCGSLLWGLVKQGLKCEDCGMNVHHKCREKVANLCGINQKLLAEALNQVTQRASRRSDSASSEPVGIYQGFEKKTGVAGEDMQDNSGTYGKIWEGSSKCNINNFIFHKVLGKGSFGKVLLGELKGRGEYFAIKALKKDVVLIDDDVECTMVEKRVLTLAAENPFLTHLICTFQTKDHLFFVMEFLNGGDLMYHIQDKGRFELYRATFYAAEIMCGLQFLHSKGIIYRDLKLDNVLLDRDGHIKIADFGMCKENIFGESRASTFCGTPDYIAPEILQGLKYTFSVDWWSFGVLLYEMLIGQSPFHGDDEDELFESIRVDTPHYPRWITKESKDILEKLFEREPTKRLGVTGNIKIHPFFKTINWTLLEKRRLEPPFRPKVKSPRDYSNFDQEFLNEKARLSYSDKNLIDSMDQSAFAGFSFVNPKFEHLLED
Protocol: The PKC-δ activity assay in situ was performed by a modification of procedures detailed by Williams and Schrier (Williams et al., Glucose-Induced Protein Kinase C Activity Regulates Arachidonic Acid Release and Eicosanoid Production by Cultured Glomerular Mesangial Cells,” J. Clin. Invest. 92:2889-2896 (1993), which is hereby incorporated by reference in its entirety). Cells were seeded into 48-well plates and transfected with 0.1 μg/well pcDNA3-hBVR. After 24 h, the medium was replaced with a starvation medium (0.1% serum) and incubation continued for another 24 h to synchronize cells. In some wells, PKC inhibitor Rottlerin (20 μM) was added 30 min before addition of PMA (100 nM) for 15 min. In some wells, hBVR-derived peptides were introduced to cells in their myristoylated form. Cells were washed with medium and incubated for 10 min at 30° C. in 50 μl of kinase assay buffer (137 mM NaCl, 5.4 mM KCl, 10 mM MgCl2, 0.3 mM Na2HPO4, 0.4 mM KH2PO4, 25 mM β-glycerophosphate, 5.5 mM D-glucose, 5 mM EGTA, 1 mM CaCl2, 20 mM HEPES (pH 7.2), 50 μg/ml digitonin, 120 μg/ml of PKC-δ specific substrate (ARRKRKGSFFGG; SEQ ID NO: 52) and 100 μM ATP labeled with 10 μCi/ml [γ-^32P]-ATP). The reaction was stopped with the addition of 25 μl of ice-cold 30% (wt/vol) TCA. The TCA-soluble fraction samples were transferred to p81 phospho-cellulose filters. […]

[3] = tested on: recombinant human PKC-δ; test: PKC-δ kinase assay in vitro (p81 filter / autoradiography); type: biochemical
Protocol: Measurement of PKC-δ activity: In vitro kinase activity assays were performed with active recombinant human PKC-δ kinase (as a GST fusion protein). PKC-δ assay in vitro was performed using 5 ng purified enzyme in a 50 μl assay containing 50 mM HEPES pH 7.4, 10 mM MgCl2, 0.2 mM DTT, sonicated lipid activators (0.5 μg phosphatidylserine and 0.05 μg diacylglycerol) or lipid activators plus PMA (as indicated in appropriate experiments) and PKC-δ substrates. The reaction was started by the addition of 50 μM ATP labeled with 5 μCi [γ-^32P]-ATP. Incubation was performed for 15 min at 30° C., unless otherwise stated. The reaction was terminated on ice, either by the addition of Laemmli buffer followed by SDS-PAGE, transferred to PVDF membrane, and autoradiography, or by the addition of 1 volume 10% phosphoric acid for p81 transfer as described below. For autophosphorylation of PKC-δ 20 μM ATP was used to start the 40-min reaction.
When hBVR or its mutants were tested for their effect on PKC-δ activity, they were pre-incubated for 5 min at room temperature with the PKC prior to substrate addition. The hBVR-derived peptides were used at concentrations indicated in appropriate figures.
When hBVR or its mutants were assayed as the sole substrates for PKC, the incubation conditions were as described above and the incubation was for 40 min at 30° C. unless specified otherwise. The reaction was terminated by the addition of Laemmli buffer, and the reaction products were detected by SDS-PAGE, transfer to PVDF membrane, and autoradiography.
Measurement of PKC-δ activity: PKC-δ assay in vitro was performed using 0.1 ng/μl purified recombinant human PKC-δ kinase with reaction conditions specified by the manufacturer. Effector molecules such as hBVR or peptides were added 5 min prior to substrate. The reaction was started by the addition of [γ-^32P]-ATP (Lerner-Marmarosh et al., “Human Biliverdin Reductase: A Member of the Insulin Receptor Substrate Family with Serine/Threonine/Tyrosine Kinase Activity,” Proc. Natl. Acad. Sci. U.S.A. 102(20):7109-7114 (2005), which is hereby incorporated by reference in its entirety). Reaction products were detected either by gel electrophoresis and autoradiography or by the p81 filter assay. PKC-δ activity on agarose beads was also measured. Cell lysates were immunoprecipitated with anti-PKC-δ antibody followed by protein A/G agarose. The immunoprecipitates were used in kinase reactions containing 50 μM PKC-δ specific peptide substrate as above; incorporation of ^32P was measured by p81 method.

effect of inhibitory peptide on PKC-βII activity [1]: essentially unaffected | activity of constitutively active PKC-δ in cells [2]: effective inhibitor | inhibition of phosphorylation of the commercial substrate ([3]; 50 μM substrate/10 μM inhibitor, FIG. 5A): More than 90% | sensitivity of PKC-δ activity to the inhibitory peptide ([3]; MBP substrate, increasing peptide concentrations, FIG. 5D): most sensitive
Sequence: KRNRYLSF (Myristoyl-KRNRYLSF)
